Residue numbers refer to the chain shown, from its start. Values joined by “and” are separate entries in the source; they are usually repeats but may differ in a detail not shown here. Equal entries are not always repeated.
B1: SEQ ID NO 34 (ligand)
chain: YFGKLKSKLSVIRNLNDQVLFIDQGNRPLFEDMTDSDCRDNAPRTIFIISMYADAQPRGMAVTISVKCEKISTLSCENKIISFKEMNPPDNIKDTKSDIIFFQRSVPGHDNKMQFESSSYEGYFLACEKERDLFKLILKKEDELGDRSIMFTVQNED
B2: SEQ ID NO 35 (ligand)
chain: B1 chain with Y1G, F2A, M51G, D54A, T63A
B3: SEQ ID NO 44 (ligand)
chain: B1 chain with F2A
B4: SEQ ID NO 48 (ligand)
chain: B1 chain with K6E, C38S, A53K, A55S, C68S, K70C, C76S, C127S
B5: SEQ ID NO 57 (ligand)
chain: B1 chain with C38S, A55S
B6: SEQ ID NO 59 (ligand)
chain: B1 chain with C38A, A55S
B7: C144 (ligand)
chain: B1 chain with K6E, V11I, C38A, A55S, T63A, C76A, C127A
B8: SEQ ID NO 45 (ligand)
chain: B1 chain with D54A
B9: SEQ ID NO 42 (ligand)
chain: B1 chain with T63A
B10: SEQ ID NO 54 (ligand)
chain: B1 chain with C38S, A55S, C68S, K70C, C76S, C127S
B11: SEQ ID NO 46 (ligand)
chain: B1 chain with M51G
B12: C145 (ligand)
chain: B1 chain with K6E, V11I, C38A, C76A, C127A
B13: SEQ ID NO 49 (ligand)
chain: B1 chain with C38S, C68S, K70C, C76S, C127S
B14: SEQ ID NO 60 (ligand)
chain: B1 chain with C38Q, A55S
B15: SEQ ID NO 55 (ligand)
chain: B1 chain with K6E, C38S, A55S, T63A, C68S, K70C, C76S, C127S
B16: SEQ ID NO 47 (ligand)
chain: B1 chain with K6E, C38S, A53K, A55S, C68S, C76S, C127S
B17: SEQ ID NO 4 (ligand)
chain: B1 chain with C38A, A55S, C68A, M86C
B18: C146 (ligand)
chain: B1 chain with K6E, V11I, C38A, M51G, A55S, C76A, C127A
B19: SEQ ID NO 62 (ligand)
chain: B1 chain with C38A, A55S, C127A
B20: SEQ ID NO 50 (ligand)
chain: B1 chain with A55S, T63A
B21: SEQ ID NO 6 (ligand)
chain: B1 chain with V11I, C38A, A55S, T63A, C68A, C76A, D98C, C127A
B22: SEQ ID NO 5 (ligand)
chain: B1 chain with V11I, C38A, A55S, T63A, C68A, C76A, M86C, C127A
B23: SEQ ID NO 9 (ligand)
chain: B1 chain with C38A, A55S, C68A, D98C
B24: SEQ ID NO 43 (ligand)
chain: B1 chain with Y1G
B25: C147 (ligand)
chain: B1 chain with K6E, V11I, C38A, D54A, A55S, C76A, C127A
B26: C143 (ligand)
chain: B1 chain with K6E, V11I, C38A, A55S, C76A, C127A
B27: C141 (ligand)
chain: GYFGKLKSKLSIIRNLNDQVLFIDQGNRPLFEDMTDSDARDNAPRTIFIISMYADSQPRGMAVAISVKCEKISTLSAENKIISFKEMNPPDNIKDTKSDIIFFQRSVPGHDNKMQFESSSYEGYFLAAEKERDLFKLILKKEDELGDRSIMFTVQNED
B28: C192 (ligand)
chain: B27 chain with M52G
B29: C140 (ligand)
chain: GGGGYFGKLKSKLSIIRNLNDQVLFIDQGNRPLFEDMTDSDARDNAPRTIFIISMYADSQPRGMAVAISVKCEKISTLSAENKIISFKEMNPPDNIKDTKSDIIFFQRSVPGHDNKMQFESSSYEGYFLAAEKERDLFKLILKKEDELGDRSIMFTVQNED
B30: C178 (ligand)
chain: B1 chain with V11I, C38A, A55S, T63A, C76A, Q103R, C127A
B31: C182 (ligand)
chain: B1 chain with V11I, C38A, A55S, T63A, C76A, C127A, V153Y
B32: C183 (ligand)
chain: B1 chain with V11I, C38A, M51G, A55S, T63A, C76A, C127A
B33: C177 (ligand)
chain: B1 chain with V11I, C38A, I49R, A55S, T63A, C76A, C127A
B34: C181 (ligand)
chain: B1 chain with V11I, C38A, A55S, T63A, C76A, C127A, V153E
B35: C176 (ligand)
chain: B1 chain with V11I, C38A, I49M, A55S, T63A, C76A, C127A
B36: C184 (ligand)
chain: B1 chain with K6R, V11I, C38A, A55S, T63A, C76A, C127A
B37: C142 (ligand)
chain: B1 chain with Y1M, V11I, C38A, A55S, T63A, C76A, C127A
B38: C174 (ligand)
chain: B1 chain with K8L, V11I, C38A, A55S, T63A, C76A, C127A
B39: SEQ ID NO 56 (ligand)
chain: B1 chain with C38S, A55S, C76S, C127S
B40: C179 (ligand)
chain: B1 chain with K8E, V11I, C38A, A55S, T63A, C76A, Q103R, C127A

Biological target: T1, IL-18 receptor (IL-18Rαβ) on cells (UniProt Q13478 19-541; O95256 20-599, limits assumed)
T1 sequence (looked up) 1: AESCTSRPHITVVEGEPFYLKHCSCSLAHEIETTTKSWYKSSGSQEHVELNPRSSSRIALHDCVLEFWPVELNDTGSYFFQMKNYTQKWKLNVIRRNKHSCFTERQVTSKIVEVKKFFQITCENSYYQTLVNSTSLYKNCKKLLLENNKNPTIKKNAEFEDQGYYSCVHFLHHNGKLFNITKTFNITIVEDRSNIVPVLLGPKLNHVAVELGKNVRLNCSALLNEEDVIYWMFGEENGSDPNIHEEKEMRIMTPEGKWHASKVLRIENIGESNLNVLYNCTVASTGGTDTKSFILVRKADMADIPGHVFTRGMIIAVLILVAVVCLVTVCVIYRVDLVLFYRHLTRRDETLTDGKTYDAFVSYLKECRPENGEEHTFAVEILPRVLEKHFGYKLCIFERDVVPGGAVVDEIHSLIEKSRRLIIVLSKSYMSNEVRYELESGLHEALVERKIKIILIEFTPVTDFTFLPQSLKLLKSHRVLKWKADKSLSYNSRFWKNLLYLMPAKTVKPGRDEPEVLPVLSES
T1 sequence (looked up) 2: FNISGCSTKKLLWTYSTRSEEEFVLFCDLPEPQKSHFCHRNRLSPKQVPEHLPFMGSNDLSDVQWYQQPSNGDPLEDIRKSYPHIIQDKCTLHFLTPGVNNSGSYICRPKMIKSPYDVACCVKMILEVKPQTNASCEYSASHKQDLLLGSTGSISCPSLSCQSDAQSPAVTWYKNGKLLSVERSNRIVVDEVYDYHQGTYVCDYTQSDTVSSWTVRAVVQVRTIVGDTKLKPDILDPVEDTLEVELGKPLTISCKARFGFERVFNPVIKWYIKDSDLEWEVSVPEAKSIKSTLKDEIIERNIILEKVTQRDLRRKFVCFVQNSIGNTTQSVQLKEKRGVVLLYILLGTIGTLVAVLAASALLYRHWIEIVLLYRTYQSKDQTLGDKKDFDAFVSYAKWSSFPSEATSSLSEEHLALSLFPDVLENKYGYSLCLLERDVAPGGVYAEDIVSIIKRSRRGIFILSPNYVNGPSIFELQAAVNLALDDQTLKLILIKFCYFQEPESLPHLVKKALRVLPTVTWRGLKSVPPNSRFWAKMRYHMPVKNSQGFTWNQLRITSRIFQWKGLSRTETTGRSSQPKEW
Experiment: cell-based or functional assay

Row | Binder | EC50 (IFNγ stimulation, NK92)
1 | B1 | 0.824 nM
2 | B2 | > 55 nM
3 | B3 | > 1000 nM
4 | B4 | 0.488 nM
5 | B5 | 0.045 nM
6 | B6 | 0.015 nM
7 | B7 | 0.012 nM
8 | B8 | 30 nM
9 | B9 | 0.144 nM
10 | B10 | 0.962 nM
11 | B11 | 7.4 nM
12 | B12 | 0.087 nM
13 | B13 | 58.5 nM
14 | B14 | 0.006 nM
15 | B15 | 17.2 nM
16 | B16 | 0.115 nM
17 | B17 | 0.022 nM
18 | B18 | 0.037 nM
19 | B19 | 0.026 nM
20 | B20 | 0.0268 nM
21 | B21 | 1.37 nM
22 | B22 | 0.075 nM
23 | B23 | 0.069 nM
24 | B24 | 6.12 nM
25 | B25 | 0.079 nM
26 | B26 | 0.138 nM

Biological target: T1, IL-18 receptor (IL-18Rαβ) on cells
Experiment: cell-based or functional assay
Remark: another data set of the same source

Row | Binder | HEK-Blue IL-18R reporter EC50
27 | B27 | 1.68 pM
28 | B28 | 14 pM
29 | B29 | 2.5 pM
30 | B1 | 272 pM
31 | B30 | 0.26 pM
32 | B5 | 0.86 pM and 0.53 pM
33 | B6 | 0.268 pM
34 | B7 | 0.17 pM
35 | B31 | 0.08 pM
36 | B9 | 0.79 pM
37 | B10 | 9.12 pM
38 | B32 | 0.1 pM
39 | B33 | 0.04 pM
40 | B12 | 3.63 pM
41 | B14 | 0.203 pM
42 | B34 | 0.1 pM
43 | B35 | 0.07 pM
44 | B36 | 0.04 pM
45 | B37 | 0.02 pM
46 | B38 | 0.29 pM
47 | B39 | 3.73 pM
48 | B18 | 0.8 pM
49 | B19 | 0.17 pM
50 | B20 | 1.77 pM
51 | B25 | 1 pM
52 | B26 | 0.98 pM
53 | B40 | 0.4 pM
